{
  "source": "patent US9926377B2",
  "about": "“Anti-GPC3 antibodies and immunoconjugates” (GENENTECH, INC., priority 2014, dated 2018)",
  "molecules": {"B1": {"name": "4A11: anti-GPC3 monoclonal antibody; heavy and light chain variable regions SEQ ID NOs: 10 and 11 (antibody, V domains shown)", "VH": "EVQLQQSAAELARPGASVRMSCRTSGYTFTTYTIHWMKQRPGQGLEWIGYINPNGGYTEYNQKFRDRTTLTADKSSSTAYMQLSSLTSEDSAVYYCTRNFDYWGQGTTLTVSS", "VL": "DIVMTQSPSSMYASLGERVTITCKASQDINSYLSWFQQKPGKSPKTLIYRVNRLVDGVPSRFSGSGSGQDYSLTISSLEYEDVGIYYCLQYDEFPLTLGAGTKLELK"}, "B2": {"name": "15G1: anti-GPC3 monoclonal antibody; heavy and light chain variable regions SEQ ID NOs: 18 and 19 (antibody, V domains shown)", "VH": "EVQLLETGGGLVQPGGSRGLSCEGSGFTFSGFWMSWVRQTPGKTLEWIGDINSDGSSINYAPSIKDRFTIFRDNDKSILYLQMTNVRSEDTGTYFCVTTYGDYWGQGTTLTVSS", "VL": "DIVMTQSQKFMSTSVGDRVSVTCKASQNVGSHVGWYQQKSGQSPKALIYSASNRYIGVPDRFTGSGSGTDFTLTISNVQSEDLAEYFCQQYHIYPYTFGGGTRLEIK"}, "B3": {"name": "7H1: anti-GPC3 monoclonal antibody; heavy and light chain variable regions SEQ ID NOs: 2 and 3 (antibody, V domains shown)", "VH": "QVQLQQSGPELVKPGASVKISCKASGYTFTDYYINWVKQKPGQGLEWIGWIYPGSGHTECNETFKGKATLTVDTSSSTAYMQLSSLTSEDTAVYFCTRGYYAPMGYFDYWGQGTTLTVSS", "VL": "DIQMTQSPSSLSASLGERVSLTCRASQEISGYLSWLQQKPDGTIKRLIYAASTLDSGVPKRFSGSRSGSDYSLTISGLESEDFADYYCLQYASYPYTFGGGTKLEIK"}},
  "key": {"[1]": {"target": "T1, full-length N-terminal gD-tagged rat GPC3 (Rattus norvegicus, UniProt P13265)", "T1 construct": "full-length N-terminal gD-tagged rat GPC3 expressed on the surface of 293 cells by FACS; gD (N); expressed in transfected cells; host or cells: 293 cells", "T1 sequence (P13265 with tags, fused parts or gaps limits assumed)": "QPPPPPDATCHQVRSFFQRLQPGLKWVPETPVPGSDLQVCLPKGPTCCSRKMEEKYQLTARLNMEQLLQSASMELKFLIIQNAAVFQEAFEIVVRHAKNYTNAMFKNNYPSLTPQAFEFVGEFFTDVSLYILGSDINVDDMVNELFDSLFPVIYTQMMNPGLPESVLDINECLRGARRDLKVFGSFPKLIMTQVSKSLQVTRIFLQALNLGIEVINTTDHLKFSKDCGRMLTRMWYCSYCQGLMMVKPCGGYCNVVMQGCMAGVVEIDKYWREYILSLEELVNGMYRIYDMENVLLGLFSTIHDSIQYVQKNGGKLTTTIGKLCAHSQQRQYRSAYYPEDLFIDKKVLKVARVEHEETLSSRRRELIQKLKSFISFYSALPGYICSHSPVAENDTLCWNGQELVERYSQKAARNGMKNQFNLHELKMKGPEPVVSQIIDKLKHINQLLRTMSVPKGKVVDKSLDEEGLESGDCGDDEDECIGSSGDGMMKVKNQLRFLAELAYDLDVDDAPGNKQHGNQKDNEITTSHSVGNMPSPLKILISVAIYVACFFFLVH", "assay": "FACS binding to rat GPC3 on 293 cells", "conditions": "rat GPC3 expressed on the surface of 293 cells", "method": "(§1) Antibodies 15G1 and 4A11 were tested for binding to full-length N-terminal gD-tagged cynomolgus monkey GPC3 and full-length N-terminal gD-tagged rat GPC3 expressed on the surface of 293 cells by FACS. Both antibodies bound to cynomolgus monkey GPC3. 15G1, but not 4A11, also bound to rat GPC3. […] The 7H1 epitope is also highly conserved between human, cynomolgus monkey, rhesus macaque, mouse, and rat GPC3, and as discussed above, antibody 7H1 detects human, cynomolgus monkey, rat, and mouse GPC3 by Western blot."}, "human GPC3 [2]": {"target": "T2, human GPC3 (Homo sapiens, UniProt P51654)", "T2 construct": "C-terminal glycophosphatidylinositol anchor (GPI link) (C); expressed in transfected cells; host or cells: 293 cells", "T2 sequence (P51654 359-559)": "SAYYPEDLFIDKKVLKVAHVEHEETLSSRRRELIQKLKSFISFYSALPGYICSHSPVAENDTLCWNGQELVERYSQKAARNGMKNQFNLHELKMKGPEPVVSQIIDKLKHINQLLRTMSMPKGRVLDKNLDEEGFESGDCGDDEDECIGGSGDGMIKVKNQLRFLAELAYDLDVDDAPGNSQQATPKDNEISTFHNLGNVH", "assay": "FACS binding to huGPC truncation constructs on 293 cells", "conditions": "huGPC(aa359-559) on 293 cells", "description": "(§2) C-terminal truncation constructs of huGPC(aa359-589) were made to further refine the epitopes for antibodies 4A11 and 15G1. Three different […] truncations were made, comprising amino acids 359 to 420 of human GPC3, amino acids 359 to 470 of human GPC3, and amino acids 359 to 509 of human GPC3. The three C-terminal truncations each comprised an HSV N-terminal signal sequence (SS) and gD sequence (SEQ ID NO: 41) and C-terminal glycophosphatidylinositol anchor (GPI link). The huGPC truncation constructs were expressed on the surface of 293 cells and antibody binding was determined by FACS. An anti-gD was used as a positive control. Vector-transfected 293 cells were used as a negative control."}, "human GPC3 [3]": {"target": "T3, human GPC3 (Homo sapiens, UniProt P51654)", "T3 construct": "C-terminal glycophosphatidylinositol anchor (GPI link) (C); expressed in transfected cells; host or cells: 293 cells", "T3 sequence (P51654 359-420)": "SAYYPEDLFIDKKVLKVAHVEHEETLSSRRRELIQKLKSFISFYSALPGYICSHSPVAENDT", "assay": "FACS binding to huGPC truncation constructs on 293 cells", "conditions": "huGPC(aa359-420) on 293 cells", "description": "as §2"}, "human GPC3 [4]": {"target": "T4, human GPC3 (Homo sapiens, UniProt P51654)", "T4 construct": "C-terminal glycophosphatidylinositol anchor (GPI link) (C); expressed in transfected cells; host or cells: 293 cells", "T4 sequence (P51654 359-470)": "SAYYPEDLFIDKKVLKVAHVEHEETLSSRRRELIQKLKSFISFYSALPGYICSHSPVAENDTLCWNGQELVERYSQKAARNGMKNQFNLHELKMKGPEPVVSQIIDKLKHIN", "assay": "FACS binding to huGPC truncation constructs on 293 cells", "conditions": "huGPC(aa359-470) on 293 cells", "description": "as §2"}, "human GPC3 [5]": {"target": "T5, human GPC3 (Homo sapiens, UniProt P51654)", "T5 construct": "C-terminal glycophosphatidylinositol anchor (GPI link) (C); expressed in transfected cells; host or cells: 293 cells", "T5 sequence (P51654 359-509)": "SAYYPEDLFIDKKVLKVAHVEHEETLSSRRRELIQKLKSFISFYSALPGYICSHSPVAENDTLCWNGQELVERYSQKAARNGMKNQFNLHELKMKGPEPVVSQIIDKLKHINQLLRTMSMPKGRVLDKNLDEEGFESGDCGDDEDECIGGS", "assay": "FACS binding to huGPC truncation constructs on 293 cells", "conditions": "huGPC(aa359-509) on 293 cells", "description": "as §2"}, "[6]": {"system": "full-length N-terminal gD-tagged cynomolgus monkey GPC3", "sequence (as listed by the source)": "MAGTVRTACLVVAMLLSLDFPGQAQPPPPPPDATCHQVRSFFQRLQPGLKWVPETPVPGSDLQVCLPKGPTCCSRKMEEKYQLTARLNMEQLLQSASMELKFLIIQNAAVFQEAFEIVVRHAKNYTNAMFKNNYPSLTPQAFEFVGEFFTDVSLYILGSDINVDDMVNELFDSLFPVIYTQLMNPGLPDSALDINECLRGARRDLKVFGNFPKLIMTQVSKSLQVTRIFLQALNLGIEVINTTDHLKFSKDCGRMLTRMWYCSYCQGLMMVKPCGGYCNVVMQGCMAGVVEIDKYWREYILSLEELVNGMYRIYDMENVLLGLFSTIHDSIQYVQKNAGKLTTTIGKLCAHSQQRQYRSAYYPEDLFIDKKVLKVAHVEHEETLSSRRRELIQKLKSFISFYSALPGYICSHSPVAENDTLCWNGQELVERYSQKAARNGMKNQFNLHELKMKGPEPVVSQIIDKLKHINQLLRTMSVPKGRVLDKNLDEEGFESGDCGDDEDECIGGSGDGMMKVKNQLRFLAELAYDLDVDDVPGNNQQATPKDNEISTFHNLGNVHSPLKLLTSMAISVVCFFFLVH", "assay": "FACS binding to cynomolgus monkey GPC3 on 293 cells", "conditions": "cynomolgus monkey GPC3 expressed on the surface of 293 cells", "method": "as §1"}, "mouse GPC3": {"target": "mouse GPC3 (Mus musculus, UniProt Q8CFZ4)", "sequence (Q8CFZ4 25-553)": "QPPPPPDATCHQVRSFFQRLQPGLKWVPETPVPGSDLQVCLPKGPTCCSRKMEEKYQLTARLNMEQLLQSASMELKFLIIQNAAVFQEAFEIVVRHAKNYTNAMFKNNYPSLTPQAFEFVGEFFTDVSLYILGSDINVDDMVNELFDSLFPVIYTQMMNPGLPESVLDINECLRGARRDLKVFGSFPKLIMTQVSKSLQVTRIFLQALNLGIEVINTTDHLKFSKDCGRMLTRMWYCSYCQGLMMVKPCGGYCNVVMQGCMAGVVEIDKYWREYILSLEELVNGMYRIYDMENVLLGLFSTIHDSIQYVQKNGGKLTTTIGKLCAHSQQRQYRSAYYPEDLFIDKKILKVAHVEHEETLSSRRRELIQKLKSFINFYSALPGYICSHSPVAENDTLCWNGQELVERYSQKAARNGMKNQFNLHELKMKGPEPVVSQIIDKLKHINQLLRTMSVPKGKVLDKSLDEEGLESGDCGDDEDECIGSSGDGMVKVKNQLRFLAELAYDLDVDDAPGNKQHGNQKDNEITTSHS", "assay": "Western blot detection of mouse GPC3", "format": "binding", "description": "(§3) Antibody 7H1 also detects human, cynomolgus monkey, rat, and mouse GPC3 by Western blot."}, "rat GPC3": {"target": "rat GPC3 (Rattus norvegicus, UniProt P13265)", "sequence (P13265 with tags, fused parts or gaps limits assumed)": "as the sequence (P13265 with tags, fused parts or gaps limits assumed) above", "assay": "Western blot detection of rat GPC3", "format": "binding", "description": "as §3"}, "cynomolgus monkey GPC3": {"system": "cynomolgus monkey GPC3", "sequence (as listed by the source)": "as the sequence (as listed by the source) above", "assay": "Western blot detection of cynomolgus monkey GPC3", "format": "binding", "description": "as §3"}, "GPC3 [7]": {"target": "T6, GPC3 (Homo sapiens, UniProt P51654)", "assay": "Binding to GPC3-expressing cells by FACS", "parameters": "endogenous in cells", "description": "(§4) Positive clones were expanded and re-screened for binding to huGPC3, cynoGPC3, and HepG2 cells by ELISA, FACS, and immunohistochemistry (IHC). Thirteen antibodies were selected and purified, including antibodies 7H1 and 4G7. The heavy and light chain variable region sequences of antibody 7H1 are shown in SEQ ID NOs: 2 and 3, respectively. The heavy and light chain variable region sequences of antibody 4G7 are shown in SEQ ID NOs: 26 and 27, respectively.\nas §3"}, "GPC3 [8]": {"target": "T6, GPC3", "assay": "FACS binding to human GPC3 fragments expressed on 293S cells", "parameters": "C-terminal glycophosphatidylinositol anchor (GPI link) (C); expressed in transfected cells; host or cells: 293S cells, transient", "description": "(§5) C-terminal truncation constructs of human GPC3 were made to further refine the epitopes for antibodies 7H1 and 4G7. […] The three C-terminal truncations each comprised the GPC N-terminal signal sequence (SS) and C-terminal glycophosphatidylinositol anchor (GPI link). […] See FIG. 7 (Santa Cruz Biotechnology antibody 1G12, which was raised to amino acids 511-580 of human GPC3, was used as a positive control for C-terminal fragment binding). Antibody 7H1 was reformatted as a chimeric antibody with human A118C cysteine-engineered IgG1 and Igκ constant regions (SEQ ID NOs: 42 and 43)."}, "GPC3 [9]": {"target": "T6, GPC3", "assay": "Western blot binding to C-terminal truncation constructs of human GPC3", "parameters": "C-terminal glycophosphatidylinositol anchor (GPI link) (C); expressed in transfected cells; host or cells: 293S cells, transient", "description": "as §5"}, "GPC3 [10]": {"target": "T6, GPC3", "assay": "Western blot detection of human GPC3", "format": "binding", "description": "as §3"}, "biotinylated GPC3": {"target": "biotinylated GPC3 (Homo sapiens, UniProt P51654)", "sequence (P51654 25-554)": "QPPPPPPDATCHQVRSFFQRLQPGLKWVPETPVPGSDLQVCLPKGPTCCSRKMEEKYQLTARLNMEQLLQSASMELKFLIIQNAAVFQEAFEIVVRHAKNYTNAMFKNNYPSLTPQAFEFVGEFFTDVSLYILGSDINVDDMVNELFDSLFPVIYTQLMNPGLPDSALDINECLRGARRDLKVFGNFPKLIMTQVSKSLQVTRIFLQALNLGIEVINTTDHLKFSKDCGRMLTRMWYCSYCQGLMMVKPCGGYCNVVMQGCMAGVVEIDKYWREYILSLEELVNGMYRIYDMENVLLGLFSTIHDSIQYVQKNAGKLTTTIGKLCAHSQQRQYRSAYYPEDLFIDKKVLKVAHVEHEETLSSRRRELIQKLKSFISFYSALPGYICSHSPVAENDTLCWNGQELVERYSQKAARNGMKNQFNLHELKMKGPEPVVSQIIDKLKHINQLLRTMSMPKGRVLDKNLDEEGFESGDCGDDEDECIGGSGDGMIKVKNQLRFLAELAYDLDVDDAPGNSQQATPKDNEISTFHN", "assay": "Epitope binning competition assay (Octet RED384)", "format": "binding", "conditions": "7H1 or 4G7 as first saturating antibody 10 μg/ml; competing antibodies 5 μg/ml", "method": "Epitope binning of anti-GPC3 antibodies was performed using a competition assay. Using the Octet RED384 instrument (ForteBio), biotinylated GPC3 was captured onto Streptavidin biosensors at 10 μg/ml for 600 seconds. Binding of the first antibody to saturation was achieved by adding 10 μg/ml for 600 seconds. The same biosensors were dipped into the competing antibodies at 5 μg/ml and binding was measured for 600 seconds. […] Antibody 7H1 was used as the first saturating antibody. A subsequent experiment was performed using antibody 4G7 as the first saturating antibody."}, "GPC3 [11]": {"target": "T6, GPC3", "assay": "Reactivity by immunohistochemistry (IHC)", "format": "binding", "parameters": "endogenous in cells", "description": "as §4, §3"}},
  "data": [
    {"molecule": "B1", "values": [
      {"measurement": "Binding by FACS", "setting": "[1]", "value": "not"},
      {"measurement": "Binding by FACS", "setting": "human GPC3 [2]", "value": "bound"},
      {"measurement": "Binding by FACS", "setting": "human GPC3 [3]", "value": "not"},
      {"measurement": "Binding by FACS", "setting": "human GPC3 [4]", "value": "not"},
      {"measurement": "Binding by FACS", "setting": "human GPC3 [5]", "value": "bound"},
      {"measurement": "Binding by FACS", "setting": "[6]", "value": "bound"}
    ]},
    {"molecule": "B2", "values": [
      {"measurement": "Binding by FACS", "setting": "[1]", "value": "bound"},
      {"measurement": "Binding by FACS", "setting": "human GPC3 [2]", "value": "bound"},
      {"measurement": "Binding by FACS", "setting": "human GPC3 [3]", "value": "not"},
      {"measurement": "Binding by FACS", "setting": "human GPC3 [4]", "value": "bound"},
      {"measurement": "Binding by FACS", "setting": "human GPC3 [5]", "value": "bound"},
      {"measurement": "Binding by FACS", "setting": "[6]", "value": "bound"}
    ]},
    {"molecule": "B3", "values": [
      {"measurement": "Detection by Western blot", "setting": "mouse GPC3", "value": "detects"},
      {"measurement": "Detection by Western blot", "setting": "rat GPC3", "value": "detects"},
      {"measurement": "Detection by Western blot", "setting": "cynomolgus monkey GPC3", "value": "detects"},
      {"measurement": "Reactivity by FACS", "setting": "GPC3 [7]; 293S cells expressing GPC3", "value": "react strongly"},
      {"measurement": "Reactivity by FACS", "setting": "GPC3 [7]; HepG2 X1 cells", "value": "react strongly"},
      {"measurement": "Binding by FACS", "setting": "GPC3 [8]; N-terminal fragment, amino acids 25 to 358 of human GPC3, on 293S cells", "value": "bind"},
      {"measurement": "Binding by FACS", "setting": "GPC3 [8]; amino acids 25 to 137 of human GPC3, transiently expressed on 293S cells", "value": "bind"},
      {"measurement": "Binding by FACS", "setting": "GPC3 [8]; amino acids 25 to 247 of human GPC3, transiently expressed on 293S cells", "value": "bind"},
      {"measurement": "Binding by Western blot", "setting": "GPC3 [9]; amino acids 25 to 137 of human GPC3", "value": "bind"},
      {"measurement": "Binding by Western blot", "setting": "GPC3 [9]; amino acids 25 to 247 of human GPC3", "value": "bind"},
      {"measurement": "Binding by Western blot", "setting": "GPC3 [9]; amino acids 25 to 358 of human GPC3", "value": "bind"},
      {"measurement": "Detection by Western blot", "setting": "GPC3 [10]", "value": "detects"},
      {"measurement": "Epitope bin", "setting": "biotinylated GPC3", "value": "different epitope bins"},
      {"measurement": "Reactivity by IHC", "setting": "GPC3 [11]; HepG2 cells", "value": "react strongly"},
      {"measurement": "Reactivity by IHC", "setting": "GPC3 [11]; JHH cells", "value": "react strongly"},
      {"measurement": "Reactivity by IHC", "setting": "GPC3 [11]; cells stably transfected with GPC3", "value": "react strongly"},
      {"measurement": "Reactivity by IHC", "setting": "GPC3 [11]; hepatic cancer tissue microarray", "value": "react strongly"}
    ]}
  ]
}
